Tests used:
GFP-14-3-3β = GFP-14-3-3β co-IP with LC-MS/MS, untreated GFP-14-3-3β versus GFP control (14-3-3 interactome); type: binding, human; conditions: untreated vs GFP; LFQ intensities, replicates 1-3
[1] = system: GFP-14-3-3β and its binding proteins; assay: GFP-14-3-3β co-IP with LC-MS/MS label-free quantification, untreated versus PP1c-treated; set-up: species or system human; conditions: PP1 vs untreated; LFQ intensities, replicates 1-3

B1: CCT2 (protein, UniProt P78371 2-535, looked up)
T-complex protein 1 subunit …: ASLSLAPVNIFKAGADEERAETARLTSFIGAIAIGDLVKSTLGPKGMDKILLSSGRDASLMVTNDGATILKNIGVDNPAAKVLVDMSRVQDDEVGDGTTSVTVLAAELLREAESLIAKKIHPQTIIAGWREATKAAREALLSSAVDHGSDEVKFRQDLMNIAGTTLSSKLLTHHKDHFTKLAVEAVLRLKGSGNLEAIHIIKKLGGSLADSYLDEGFLLDKKIGVNQPKRIENAKILIANTGMDTDKIKIFGSRVRVDSTAKVAEIEHAEKEKMKEKVERILKHGINCFINRQLIYNYPEQLFGAAGVMAIEHADFAGVERLALVTGGEIASTFDHPELVKLGSCKLIEEVMIGEDKLIHFSGVALGEACTIVLRGATQQILDEAERSLHDALCVLAQTVKDSRTVYGGGCSEMLMAHAVTQLANRTPGKEAVAMESYAKALRMLPTIIADNAGYDSADLVAQLRAAHSEGNTTAGLDMREGTIGDMAILGITESFQVKRQVLLSAAEAAEVILRVDNIIKAAPRKRVPDHHPC
Difference (log2), untreated vs GFP (GFP-14-3-3β): 0.06414 log2 | Difference (log2), PP1 vs untreated [1]: -1.71 log2

B2: RHPN2 (protein, UniProt Q8IUC4 1-686, looked up)
Rhophilin-2: MTDALLPAAPQPLEKENDGYFRKGCNPLAQTGRSKLQNQRAALNQQILKAVRMRTGAENLLKVATNSKVREQVRLELSFVNSDLQMLKEELEGLNISVGVYQNTEEAFTIPLIPLGLKETKDVDFAVVLKDFILEHYSEDGYLYEDEIADLMDLRQACRTPSRDEAGVELLMTYFIQLGFVESRFFPPTRQMGLLFTWYDSLTGVPVSQQNLLLEKASVLFNTGALYTQIGTRCDRQTQAGLESAIDAFQRAAGVLNYLKDTFTHTPSYDMSPAMLSVLVKMMLAQAQESVFEKISLPGIRNEFFMLVKVAQEAAKVGEVYQQLHAAMSQAPVKENIPYSWASLACVKAHHYAALAHYFTAILLIDHQVKPGTDLDHQEKCLSQLYDHMPEGLTPLATLKNDQQRRQLGKSHLRRAMAHHEESVREASLCKKLRSIEVLQKVLCAAQERSRLTYAQHQEEDDLLNLIDAPSVVAKTEQEVDIILPQFSKLTVTDFFQKLGPLSVFSANKRWTPPRSIRFTAEEGDLGFTLRGNAPVQVHFLDPYCSASVAGAREGDYIVSIQLVDCKWLTLSEVMKLLKSFGEDEIEMKVVSLLDSTSSMHNKSATYSVGMQKTYSMICLAIDDDDKTDKTKKISKKLSFLSWGTNKNRQKSASTLCLPSVGAARPQVKKKLPSPFSLLNSDSSWY
Difference (log2), untreated vs GFP (GFP-14-3-3β): 5.43 log2 | Difference (log2), PP1 vs untreated [1]: -1.815 log2

B3: BAIAP2 (protein, UniProt Q9UQB8 1-552, looked up)
BAR/IMD domain-containing …: MSLSRSEEMHRLTENVYKTIMEQFNPSLRNFIAMGKNYEKALAGVTYAAKGYFDALVKMGELASESQGSKELGDVLFQMAEVHRQIQNQLEEMLKSFHNELLTQLEQKVELDSRYLSAALKKYQTEQRSKGDALDKCQAELKKLRKKSQGSKNPQKYSDKELQYIDAISNKQGELENYVSDGYKTALTEERRRFCFLVEKQCAVAKNSAAYHSKGKELLAQKLPLWQQACADPSKIPERAVQLMQQVASNGATLPSALSASKSNLVISDPIPGAKPLPVPPELAPFVGRMSAQESTPIMNGVTGPDGEDYSPWADRKAAQPKSLSPPQSQSKLSDSYSNTLPVRKSVTPKNSYATTENKTLPRSSSMAAGLERNGRMRVKAIFSHAAGDNSTLLSFKEGDLITLLVPEARDGWHYGESEKTKMRGWFPFSYTRVLDSDGSDRLHMSLQQGKSSSTGNLLDKDDLAIPPPDYGAASRAFPAQTASGFKQRPYSVAVPAFSQGLDDYGARSMSRNPFAHVQLKPTVTNDRCDLSAQGPEGREHGDGSARTLAGR
Difference (log2), untreated vs GFP (GFP-14-3-3β): 2.991 log2 | Difference (log2), PP1 vs untreated [1]: -1.977 log2

B4: ZYX (protein, UniProt Q15942 2-572, looked up)
Zyxin: AAPRPSPAISVSVSAPAFYAPQKKFGPVVAPKPKVNPFRPGDSEPPPAPGAQRAQMGRVGEIPPPPPEDFPLPPPPLAGDGDDAEGALGGAFPPPPPPIEESFPPAPLEEEIFPSPPPPPEEEGGPEAPIPPPPQPREKVSSIDLEIDSLSSLLDDMTKNDPFKARVSSGYVPPPVATPFSSKSSTKPAAGGTAPLPPWKSPSSSQPLPQVPAPAQSQTQFHVQPQPQPKPQVQLHVQSQTQPVSLANTQPRGPPASSPAPAPKFSPVTPKFTPVASKFSPGAPGGSGSQPNQKLGHPEALSAGTGSPQPPSFTYAQQREKPRVQEKQHPVPPPAQNQNQVRSPGAPGPLTLKEVEELEQLTQQLMQDMEHPQRQNVAVNELCGRCHQPLARAQPAVRALGQLFHIACFTCHQCAQQLQGQQFYSLEGAPYCEGCYTDTLEKCNTCGEPITDRMLRATGKAYHPHCFTCVVCARPLEGTSFIVDQANRPHCVPDYHKQYAPRCSVCSEPIMPEPGRDETVRVVALDKNFHMKCYKCEDCGKPLSIEADDNGCFPLDGHVLCRKCHTARAQT
Difference (log2), untreated vs GFP (GFP-14-3-3β): -0.162 log2 | Difference (log2), PP1 vs untreated [1]: -2.012 log2

B5: KIF5B (protein, UniProt P33176 2-963, looked up)
Kinesin-1 heavy chain: ADLAECNIKVMCRFRPLNESEVNRGDKYIAKFQGEDTVVIASKPYAFDRVFQSSTSQEQVYNDCAKKIVKDVLEGYNGTIFAYGQTSSGKTHTMEGKLHDPEGMGIIPRIVQDIFNYIYSMDENLEFHIKVSYFEIYLDKIRDLLDVSKTNLSVHEDKNRVPYVKGCTERFVCSPDEVMDTIDEGKSNRHVAVTNMNEHSSRSHSIFLINVKQENTQTEQKLSGKLYLVDLAGSEKVSKTGAEGAVLDEAKNINKSLSALGNVISALAEGSTYVPYRDSKMTRILQDSLGGNCRTTIVICCSPSSYNESETKSTLLFGQRAKTIKNTVCVNVELTAEQWKKKYEKEKEKNKILRNTIQWLENELNRWRNGETVPIDEQFDKEKANLEAFTVDKDITLTNDKPATAIGVIGNFTDAERRKCEEEIAKLYKQLDDKDEEINQQSQLVEKLKTQMLDQEELLASTRRDQDNMQAELNRLQAENDASKEEVKEVLQALEELAVNYDQKSQEVEDKTKEYELLSDELNQKSATLASIDAELQKLKEMTNHQKKRAAEMMASLLKDLAEIGIAVGNNDVKQPEGTGMIDEEFTVARLYISKMKSEVKTMVKRCKQLESTQTESNKKMEENEKELAACQLRISQHEAKIKSLTEYLQNVEQKKRQLEESVDALSEELVQLRAQEKVHEMEKEHLNKVQTANEVKQAVEQQIQSHRETHQKQISSLRDEVEAKAKLITDLQDQNQKMMLEQERLRVEHEKLKATDQEKSRKLHELTVMQDRREQARQDLKGLEETVAKELQTLHNLRKLFVQDLATRVKKSAEIDSDDTGGSAAQKQKISFLENNLEQLTKVHKQLVRDNADLRCELPKLEKRLRATAERVKALESALKEAKENASRDRKRYQQEVDRIKEAVRSKNMARRGHSAQIAKPIRPGQHPAASPTHPSAIRGGGAFVQNSQPVAVRGGGGKQV
Difference (log2), untreated vs GFP (GFP-14-3-3β): 3.573 log2 | Difference (log2), PP1 vs untreated [1]: -1.944 log2

B6: PPP1R12A (protein, UniProt O14974 1-1030, looked up)
Protein phosphatase 1 …: MKMADAKQKRNEQLKRWIGSETDLEPPVVKRQKTKVKFDDGAVFLAACSSGDTDEVLKLLHRGADINYANVDGLTALHQACIDDNVDMVKFLVENGANINQPDNEGWIPLHAAASCGYLDIAEFLIGQGAHVGAVNSEGDTPLDIAEEEAMEELLQNEVNRQGVDIEAARKEEERIMLRDARQWLNSGHINDVRHAKSGGTALHVAAAKGYTEVLKLLIQAGYDVNIKDYDGWTPLHAAAHWGKEEACRILVDNLCDMEMVNKVGQTAFDVADEDILGYLEELQKKQNLLHSEKRDKKSPLIESTANMDNNQSQKTFKNKETLIIEPEKNASRIESLEQEKVDEEEEGKKDESSCSSEEDEEDDSESEAETDKTKPLASVTNANTSSTQAAPVAVTTPTVSSGQATPTSPIKKFPTTATKISPKEEERKDESPATWRLGLRKTGSYGALAEITASKEGQKEKDTAGVTRSASSPRLSSSLDNKEKEKDSKGTRLAYVAPTIPRRLASTSDIEEKENRDSSSLRTSSSYTRRKWEDDLKKNSSVNEGSTYHKSCSFGRRQDDLISSSVPSTTSTPTVTSAAGLQKSLLSSTSTTTKITTGSSSAGTQSSTSNRLWAEDSTEKEKDSVPTAVTIPVAPTVVNAAASTTTLTTTTAGTVSSTTEVRERRRSYLTPVRDEESESQRKARSRQARQSRRSTQGVTLTDLQEAEKTIGRSRSTRTREQENEEKEKEEKEKQDKEKQEEKKESETSREDEYKQKYSRTYDETYQRYRPVSTSSSTTPSSSLSTMSSSLYASSQLNRPNSLVGITSAYSRGITKENEREGEKREEEKEGEDKSQPKSIRERRRPREKRRSTGVSFWTQDSDENEQEQQSDTEEGSNKKETQTDSISRYETSSTSAGDRYDSLLGRSGSYSYLEERKPYSSRLEKDDSTDFKKLYEQILAENEKLKAQLHDTNMELTDLKLQLEKATQRQERFADRSLLEMEKRERRALERRISEMEEELKMLPDLKADNQRLKDENGALIRVISKLSK
Difference (log2), untreated vs GFP (GFP-14-3-3β): 2.126 log2 | Difference (log2), PP1 vs untreated [1]: -1.93 log2

B7: MPRIP (protein, UniProt Q6WCQ1 2-1025, looked up)
Myosin phosphatase …: SAAKENPCRKFQANIFNKSKCQNCFKPRESHLLNDEDLTQAKPIYGGWLLLAPDGTDFDNPVHRSRKWQRRFFILYEHGLLRYALDEMPTTLPQGTINMNQCTDVVDGEGRTGQKFSLCILTPEKEHFIRAETKEIVSGWLEMLMVYPRTNKQNQKKKRKVEPPTPQEPGPAKVAVTSSSSSSSSSSSIPSAEKVPTTKSTLWQEEMRTKDQPDGSSLSPAQSPSQSQPPAASSLREPGLESKEEESAMSSDRMDCGRKVRVESGYFSLEKTKQDLKAEEQQLPPPLSPPSPSTPNHRRSQVIEKFEALDIEKAEHMETNAVGPSPSSDTRQGRSEKRAFPRKRDFTNEAPPAPLPDASASPLSPHRRAKSLDRRSTEPSVTPDLLNFKKGWLTKQYEDGQWKKHWFVLADQSLRYYRDSVAEEAADLDGEIDLSACYDVTEYPVQRNYGFQIHTKEGEFTLSAMTSGIRRNWIQTIMKHVHPTTAPDVTSSLPEEKNKSSCSFETCPRPTEKQEAELGEPDPEQKRSRARERRREGRSKTFDWAEFRPIQQALAQERVGGVGPADTHEPLRPEAEPGELERERARRREERRKRFGMLDATDGPGTEDAALRMEVDRSPGLPMSDLKTHNVHVEIEQRWHQVETTPLREEKQVPIAPVHLSSEDGGDRLSTHELTSLLEKELEQSQKEASDLLEQNRLLQDQLRVALGREQSAREGYVLQATCERGFAAMEETHQKKIEDLQRQHQRELEKLREEKDRLLAEETAATISAIEAMKNAHREEMERELEKSQRSQISSVNSDVEALRRQYLEELQSVQRELEVLSEQYSQKCLENAHLAQALEAERQALRQCQRENQELNAHNQELNNRLAAEITRLRTLLTGDGGGEATGSPLAQGKDAYELEVLLRVKESEIQYLKQEISSLKDELQTALRDKKYASDKYKDIYTELSIAKAKADCDISRLKEQLKAATEALGEKSPDSATVSGYDIMKSKSNPDFLKKDRSCVTRQLRNIRSKSVIEQVSWDT
Difference (log2), untreated vs GFP (GFP-14-3-3β): 1.085 log2 | Difference (log2), PP1 vs untreated [1]: -1.951 log2

— publication PMC7367873, “Dissecting the sequence determinants for dephosphorylation by the catalytic subunits of phosphatases PP1 and PP2A” (Nature Communications, 2020)
